Laboratory results from the nanobody polyreactivity screen of Harvey et al. (2022).

Experiment: yeast display, Sf9 membrane polyspecificity reagent, FACS + sequencing; frameworks hold sequencing errors
In short: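 Sorting gates, low and high (top ~1%), were placed on anti-HA fluorescence to track expression and on streptavidin fluorescence to track reagent binding. A clone's polyreactivity label is taken from the gate it came out of. The reagent was 10% biotinylated, detergent-solubilized Sf9 membrane, applied for 1 hour at 4 °C to galactose-induced yeast display cells.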

Row | Sequence | polyreactivity (PSR sort gate)
1 | QVQIVESRGCLVQAGGSLRLICAASGSIFLANAMGWYRQAPRKEREFVPAITSSGGSTYYADSVKGRFTISRDNAKNSVYLQMNSLKPEDTAVYYCNVRPRYRWRSTPYGYWGQGTQVTVSS | high polyreactivity
2 | QVHLVESGGGLVQAGGSLRLSSADSGRTFAYNAMRWYRPAPGKERELVAAITWSGDSTYYADSVKGRFTISRDNAKNTVYFQMNSLKPEDTEVYYCAADYFGGPSYEFDYWGQGTQVTVSS | low polyreactivity
3 | QVQLVESGGGLVEAGGSLRLSCAASGRTFQYYPMGWYRQAPGKERDFVAAITRTGARTYYADSVKGRFTISRDNAKNTVYLQMYSLKPEDTAVYYCAISLTFYSWRDYGYWGQGSQVTVSS | high polyreactivity
4 | QVQLVESGGGLVQAGGSLRLSCAASGSIFTWYTMGWYRQAPGKERELVAGIRTGGSTYYADSVKGRFTISRDNAKNTVYLQMNSLKPEDTSVYYCARQRWYRQYYFTSDYWGLGTQVTVSS | high polyreactivity
5 | QVKLVESGGGIVQAGGSLRLTCAASGSTVRLYAMGCYRQAPGKERELVAAISTRGSSTYYADSVKGRFTISRDNAKNTVYLQMNSLKPEDTAVFYCAADAYFIYSRYWYDYWGQGTQVTVSS | high polyreactivity
6 | QVQLVESGAGIVQAGGSLRLSCAASGRIFSDYTMGWYRQAPGKERELVAAIDWSGGNTYYADSVKGRFTISRDNAKNTVYLQMNSLKPEDTAVYYCNADWTYPSAEREYWGQGTQVTVSS | low polyreactivity
7 | QVQLVESGGGLVQAGGSLRLSCAASGGIFIVNAMGWYRPAPGKERELVAAITLSGGSTYYADSVKGRFTISRDNAKNTVYFQMNSLKPEDTAVYYCNKDYYPGSYDYWGQGTQVTVSS | low polyreactivity
8 | QVQLVESGGGLVQAGGSLRLSCAASGYILYANAMGWYRQAPGKERELVASITFGDDSTYYADSVKGRFTISRDNAKNTVYLQMNSLKPEDTAVYYCNADHKVEVEDDYWGQGTQVTVSS | low polyreactivity
9 | QVQLVESGGGLVQAGGSLRLSCAASGSTFYTNAMGWYRQAPGKERELVAVITYRGGSTYYADSVKGRFTISRDNAKNTVYLQMNSLKPEDTAVYYCNARGTVPWYGYDYWGQGTQVTVSS | high polyreactivity
10 | QVQLVESGAGLVKAGGSLRLSCAASGIIFGNYAMGLYRQAPGKEREFVAAISGSGDSTYYADSVKGRFTISRDNAKNTVYLQMNSLKPEVTAVYYCAADWTLVYYHEDYWGQGTQVTVSS | high polyreactivity
11 | QVQLVESGGGLVQAGGSLRLSCAASGITFKYYTMGWYRQAPGKERELVASINNDGSTYYADSVKGRFTISRDNAKNTVYFQMNSLKPEDTAVYYCAASGYGWFWYDYWGHGTQVTVSS | high polyreactivity
12 | QDQLVESGGGLVQAGGSLRLSCAASGSTFSYYAMGWYRQATGKERELVASISTRGGSTYYADSVKGRFTISRDNAKNTVYLQMNSLKPEDTAVYYCAATIRPRGVARVDYWGQGTQVTVSS | high polyreactivity
13 | QVQLVESGGGLVQAGGSLRLSCAASGYTLSVNAMGWYRQAPGKERELVATIDFGGGSTYYADSVKGRFTISRDNAKNTVYLQMNSLKPEDTAVYYCNTEWTSLSKSSLGGRYDHWGQGTQVTVSS | low polyreactivity
14 | QFKLVESGGGLVQAGGSLRLSCAASGSIVERKTMGWYRQAPGKEMEFVAGITQSGGRTYYADSVKGRFTISRDNAKNTVYLQMNSLKPEDTAVYYCATKTPRAWSYGYWGQGTQVTVSS | high polyreactivity
15 | QVQLVESGGGLVQAGGSLRLSSAASGSIFFRNAMGWYRKAPGKERELVAAISRSGGNTYYADSVKGRFTISRDNAKNTVYLQMNSLKPEDTAVYYCAKYRTLYWYDYWGQGTQVTVSS | high polyreactivity
16 | QVQLVESGGGLVQAGGSLRLICAASGSTSLVYAMGWYRQAPGKERDLVAAISWSGGSTYYADSVKGRFTISRDNAKNTVYLQMNSLKPEDTAVYYCAAEYYGYWEYDYWGQGTQVTVSS | high polyreactivity
17 | QVQLVESGGGLVQAGGSLRLSCAASGFIFYHYAIGWYRQEPGKERELVAAISGRGGSTYYADSVKGRFTISRDNAKNSVYLQMNSLKPEDTAVYYCSTDYSRTFDYWGQGTQVTVSS | high polyreactivity
18 | QVQLVESGGGLVQAGGSLRLSCAASGSTFSYNAMGWYRQAPGKERELVASISTSGGSTYYADSVKGRFTISRDNAKNTVYLQMNSLKPEDTAVYYCNAPTSDMYSDFDYWGQGTQVTVSS | low polyreactivity
19 | QVQLVESGGGLVQAGGSLRLSCAASGSTLRDYVMGWYRQAPGKERELVAAITSRVDDTYYADSVKGRFTISRDNAKNTVYLQMNSLKPEDTAVYYCAKRYGRFYHYDYWGQGTQVTVSS | low polyreactivity
20 | QVQLVESGGGLVQAGGSLRLSCAASGSTFTRYAMGWYRQAPGKERELVAAITRSGGGTYYADSVKGRFTSSRDNAKNTVYLQLNSLKPEDTAVYYCAKDIVFYGSPGYGYWGQGTQVTVSS | high polyreactivity
21 | QVQLVESGGGLVQAGGSLRLSCAASGSIFYSNMGWYRQAPGKEREFFAAISGSGVRTYYADSVKGRFTISRDNAKNTVYLQMNSLKPEDTAVYYCNAGRRQDFRYNYWGHGTQVTVSS | high polyreactivity
22 | QVQLVESGGGLVQAGGSLRLSCAASGSTFGRYAMGWYRQAPGKERELVAAISASGGSTYYADSVKGRFTISRDNAKNTVYLLMNSLKPEDTAVYYSAALIDVITGQYDYWGQGTQVTVSS | high polyreactivity

Row | Sequence | polyreactivity (PSR sort gate)
23 | QVQLVESGGGLVQAGGSLRLSCDASGNIFGLNAMGWYRQAPGKERELVSAISSGGSTNYADSVKGRFTISRDNAKNTVYLQMNSLKPEDTAVYYCAVQGSRYSYCYGYRFRTMDYWGQVTQVTVSS | high polyreactivity
24 | QVQLVESGGGLVQAGGSLRLSSAASGFTFQGYVMGWYRQAPGKERELVAAISWSGGSTYYADSVKGRFTISRDTAKNTVYLQMNSLKPEDTAVYYCAAVTRFYTKYYWGQGTQVTVSS | high polyreactivity
25 | HVQLVESGGGLVQAGGSLRLSCAASGSTFDVYAMGWYRQAPGKERELVAAISRSGGSTYYADSVKGRFTISRDNAKNTVYLQMNSLKPEDTAVYYCNARLARWGSYEYNYWGQGTQVTVSS | low polyreactivity
26 | QVQLVESGGGLVQAGGSLRLSCAASGSTFHAYAMGWYRQAPGKEREMVAAISWRGGSTYYADSVKGRFTISRDNAKNTVYLQMNSLKPEDTAVYYCAASVQGLFGTSGLEGVDYWGQGTQVTVSS | high polyreactivity
27 | QVQLVESGGGLVQAGGSLRLSCAASGFIFAYYAMGWYRQAPGKERELVARITRGGRTYYADSVKGRFTISRDNAKNTVYLQMNSLKPEDTAVYYCATTGSSYFHSFEYDYWGQGTQVTVSS | low polyreactivity
28 | QDQLVESAGGLVQAGGSLRLSCAASGRTFRAYAMGWYRQAPGKAMELVAAISRNGGTTYYADSVKGRFTMSRDNAKNTVYLQMNSLKPEDTAVSYCNARAGTKTGLKSDYWGQGTQVTVSS | high polyreactivity
29 | QVQLVESGGGLVQAGGSLRLRCAASGFIFWMNAMGWYRQAPGKERELVAAISIGGRTNYADSVKGRFTISRDNSKNTVYLQMNSLKPEDTAVYYCNKDYRSVYKGGGFDYWGQGTQVTVST | low polyreactivity
30 | QVQLVESGGGLVQAGGSLRLSCAASGIIFYPYAMGWYSLAPGKERELVAAISQSGGTTSYADSVKGRFTISRDNAKNTVYLQMNSLKPEDTAVYYCARRVSTRKRYYYWGQGTQVTVSS | high polyreactivity
31 | QVQLLESGGGLVQAGGSLRLSCAASGYTFRYYTMGWYRQAPGKERELVAAISGSGGSTYYADSVKGRFTISRDTAKNTVYLQMNSLKPEDTAVYYCNRFYSTSRITQYEFDYWGQGTQVTVSS | high polyreactivity
32 | QVQLVESGGGLVQAGGSLRLSCAASGSTFSSYGMGWYRQAPGKERELVAAISKRGGSTYYADSVKGRFTISRDNAKNTVYLQMNSLKPEDTAVYYCAARYRLYYYFRFDWGQGTHVTVSS | high polyreactivity
33 | QVQLVESGGALVQAGGSLRLSCAASGFTFIPNAMGWYRQAPGKERELVAAIYSSGGTTYYADSVKGRFTISRDTAKNTVYLQMNSLKTEDTAVYYCARRVYGYYIPYNYWGQATQVTVSS | high polyreactivity
34 | QVQLVETGGGLDQAGGSLRLSCAASGRTFLLYAMGWYRQAPGKERELVARITGRGGRTYYADSVKGRFTISRDNAKNTVYLQMNSLKPEDTAVYYCNAKGYQGQWERYDYWGQGTEVTVSS | high polyreactivity
35 | QVQLQESGGGLVQAGDSQRLSCAASGNIFRFTDMGWYRKAPGKERELVAAINAGSTTYYADSVKGRFTISRDNAKNTVYLQMNSLKPEDTAVYYCAVYYLGSGTFGYWGQGAQVTVSS | high polyreactivity
36 | QVQLVESGGCLVQAGGSLRLSCAASGRIFLPYAMVWYRQAPGKERELVASITRRGGTTYYADSVKGRFTISRDNAKNTVYLQMNSLKPADSAVYYCAKESWPYGTRGYYHYEYWGQGTQVTVSS | high polyreactivity
37 | QVQLVESGGGLVQAGGSLRLSCAASGSTFLYYAMGWYRQAPGKERELVAAIDWSDTSTYYADSVKGRFTISRDNAKNTVYLQMNSLKPEDTAVYYCAADTYLVDGDYWGQGTQETVSS | low polyreactivity
38 | QVQLVESGGGLVQAGGSLRLSCAASGFIFSRYAMGWYRQAPGKERELVAAISWSGASTYYADSVKGRFTISRDNAKNTVYLQMNSLKPEDTAVYYCNAGYYRGEGFYTYDYWGQGTQVTVSS | high polyreactivity
39 | QVQLVESGGGLVQAGGSLRLSCAASGITFDQNAMGWSRQEPGKESEFVAAISVSGARTYYADSVKGRFTISRDNAKNTVYLQMNSLKPEDTAVYYCAAYGGTRYYYSYYYWGQGTQVTVSS | high polyreactivity
40 | QVQLVESGGGLVQAGGSLRLSCAASGSTFYVYAMGWYRQAPGKERELVAAIDDSGDRTYYADSVKGRFTISRDNAKNTVYLQMNSLKPEDTAVYYCAAEYDSWEYDYWGQGTQVTVSS | low polyreactivity
41 | QVQLVESGGGLVQAGGSLRLSCPASGFIFSIYTMGWYRQAPGKERELVAAITRSGSSTYYADSVKGRFTISRDNAKNTVYLQMNSLKPEDTAVSYCNRLCFGQYQPFYGYWGQGTQVTVSS | high polyreactivity
42 | QVQLVESGGGLVQAGGSLRLICAASGSIIGVNAMGWYRQAPGKERELVAAITSTGGSTYYADSVKGRFTISRDNAKNTVYLKMNSLKPEDTAVYYCNTHYSKSIGEGYAGFDYWGQGTQVTVSS | low polyreactivity
43 | QVQLVESGAGLVQAGGSLRLSSAASGLTFQTYAMGCYRQAPGKEREYVATISNGSSTYYADSVKGRFTISRDNAKNTVYFQMNILKPEDTAVYYCAKDYYYSRNQLYGHDYWGQGPQVTVSS | low polyreactivity
